From patent US20250270309A1 (Eli Lilly, published 2025) come the findings set out here.

Usually Kd stands for the constant that tells how readily two partners part at equilibrium. Low values mean a tighter complex, high ones a looser complex.

One test has as its target T1, mouse IL-19 (mouse, UniProt Q8CJ70 25-176, limits assumed).
T1 construct: Used as immunogen and for panning; in the in-house ELISA it is the IL-19 secreted in mouse ear cultures; also called murine IL-19
T1 sequence (looked up): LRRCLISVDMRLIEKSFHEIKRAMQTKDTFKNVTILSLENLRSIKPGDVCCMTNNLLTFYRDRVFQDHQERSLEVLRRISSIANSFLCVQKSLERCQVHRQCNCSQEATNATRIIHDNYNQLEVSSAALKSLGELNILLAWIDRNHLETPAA
The test can be described thus: yeast surface display of single-chain Fab library, panning with mouse IL-19.

Test [1] has as its target T2, human IL-19 (human, UniProt Q9UHD0 25-177).
T2 sequence: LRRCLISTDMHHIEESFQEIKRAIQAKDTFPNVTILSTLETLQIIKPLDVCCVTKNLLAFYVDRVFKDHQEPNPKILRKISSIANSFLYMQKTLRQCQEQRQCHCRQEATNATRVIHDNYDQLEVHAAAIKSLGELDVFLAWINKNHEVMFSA
The test can be described thus: cell-based or functional assay.

The target in test [2] is T3, cyno IL-19 (cyno).
T3 chain: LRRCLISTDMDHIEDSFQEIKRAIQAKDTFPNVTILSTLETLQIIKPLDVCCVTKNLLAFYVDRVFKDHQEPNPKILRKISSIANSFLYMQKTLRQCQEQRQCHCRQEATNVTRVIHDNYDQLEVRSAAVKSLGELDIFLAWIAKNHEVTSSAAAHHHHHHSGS
In words: cell-based or functional assay.

Test [3] has as its target T2, human IL-19. The test can be described thus: cell-based or functional assay. This is another data set of the same source.
Test [4] deals with T3, cyno IL-19. In words: cell-based or functional assay.
For test [5], the target named is T2, human IL-19. The test can be described thus: MSD-SET solution equilibrium titration, 10 pM fixed biotinylated human IL-19, 37 C, mean of 3 experiments. The source says:
A Meso Scale Discovery Solution Equilibrium Titration (MSD-SET) assay, measured with a SECTOR® Imager 6000 (Meso Scale Diagnostics), is used to assess binding of exemplified IL-19 antibodies of the present invention to biotinylated human IL-19 (having the amino acid sequence set for in SEQ ID NO: 1).
Except as noted, all the reagents and materials are from Meso Scale Diagnostics (Rockville, Maryland). Recombinant human IL-19 reagents are biotinylated using the EZ-link sulfo-NHS-Biotin kit (Thermo Cat #A39257). Briefly, 20 pM biotinylated human IL-19 is mixed in a 1:1 ratio with a 3-fold dilution series of exemplified antibody samples of the present invention (mAb 1 and mAb 2) to give a final concentration of: 10 pM biotinylated human IL-19 and a 11-point 3-fold antibody gradient from 1 nM to 0.017 pM. The mix is incubated at 37° C. for 72 hrs. […] After washing three times with wash buffer, 150 μL of 1× Read Buffer T (Cat. #R92TC-1) is added to the well and analyzed on a SECTOR® Imager 6000 (Meso Scale Diagnostics) 5 min after buffer addition. […]
The equilibrium KD is determined by fitting a sigmoidal curve to the electrochemiluminescence (ECL) response vs. log (IL-19 concentration) using assay development tool kit graphed with normalized ECL values.

B1: anti-murine IL-19 Ab mAb 3 (antibody, V domains shown)
VH: QQLEESGGGLAKPEGSLTLTCKTSGFDLSSTYYMSWVRQAPGKGLEWIASIVTSGRSGASYYANWAKGRFTISKTSSTTVTLQMTSLAAADTASYFCVRDLPAPTDDRGLWGPGTLVVVSS
VL: AQVLTQTPSSVSEPVGGTVTINCQASESVYNKNWLSWFQQKPGQPPKLLIYDSSDLASGVPSRFKGSGSGTHFTLTISDVQCGDAATYYCGGSYTDTYVFGGGTEVVVK
notes: also called anti-murine IL-19 Ab3
Consider B1, for which the binding result with mouse IL-19 was “binds”.

B2: anti-murine IL-19 Ab mAb4 (antibody, V domains shown)
VH: QEQLKESGGGLVQPGGSLKLSCKASGFPLSSYGFSWVRQAPGKGLEWIGYLDPVFGSTLSAHTVNGRLTISSDNAQNTLYLQLNSLTAADTATYFCARGIGYVYYGYTYDLWGPGTLVTVSS
VL: DIVMTQTPASVEAAVGGTVTIKCSASASIYEYLSWYQQKPGQRPKLLIYGASVLTDGVSSRFKGSGSGTEFTLTISDLEAADAATYYCQSYNDGSSSGDAHVFGGGTEVVVK
notes: also called anti-murine IL-19 Ab4
Turning to B2, the binding result in the test with mouse IL-19 is “binds”.

B3: Ab1 (antibody, human IgG4 S228P, kappa, F234A L235A, V domains shown)
VH: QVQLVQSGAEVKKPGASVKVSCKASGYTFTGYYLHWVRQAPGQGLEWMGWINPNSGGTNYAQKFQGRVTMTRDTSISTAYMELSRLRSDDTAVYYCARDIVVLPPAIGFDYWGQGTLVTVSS
VL: AIQLTQSPSSLSASVGDRVTITCRASQDIRSDFGWYQQKPGKAPKLLIYAASSLQSGVPSRFSGSGSGTDFTLTISSLQPEDFATYYCLQDYNYPWTFGQGTKVEIKR
notes: Anti-human IL-19 antibody; Detected with anti-human IgG4 reagents in the PK ELISA, so IgG4; also called mAb 1; mAb1
On to B3, for which, in the test with human IL-19 [1], the “IC50 for human IL-19 (IL-19 induced IL20Ra/IL20Rb receptor dimerization signal, U2OS PathHunter cells)” value came out at 3.46 nM. Further, the “IC50 for Cyno IL-19 (IL-19 induced IL20Ra/IL20Rb receptor dimerization signal, U2OS PathHunter cells)” value with cyno IL-19 [2] was 2.79 nM. The “IC50 with human IL-19 (IL-19 induced phospho-STAT3 signal, A431 cells)” value with human IL-19 [3] turned out to be 2.31 nM. In addition, the “IC50 with Cyno IL-19 (IL-19 induced phospho-STAT3 signal, A431 cells)” value with cyno IL-19 [4] stood at 1.82 nM. The molecule also yielded a Kd with human IL-19 [5] of 0.0131 nM.

B4: Ab2 (antibody, human IgG4 S228P, kappa, F234A L235A, V domains shown)
VH: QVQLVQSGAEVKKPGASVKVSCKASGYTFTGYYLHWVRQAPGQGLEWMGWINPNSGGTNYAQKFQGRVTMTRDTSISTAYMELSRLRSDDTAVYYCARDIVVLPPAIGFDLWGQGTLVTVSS
VL: B3 VL
notes: Anti-human IL-19 antibody; also called mAb 2; mAb2
In the case of B4, in the test with human IL-19 [1], the “IC50 for human IL-19 (IL-19 induced IL20Ra/IL20Rb receptor dimerization signal, U2OS PathHunter cells)” value was determined as 3.47 nM. Besides, in the test with cyno IL-19 [2], the “IC50 for Cyno IL-19 (IL-19 induced IL20Ra/IL20Rb receptor dimerization signal, U2OS PathHunter cells)” value came to 2.87 nM. In addition, the “IC50 with human IL-19 (IL-19 induced phospho-STAT3 signal, A431 cells)” value with human IL-19 [3] was determined as 2.21 nM. Moreover, the “IC50 with Cyno IL-19 (IL-19 induced phospho-STAT3 signal, A431 cells)” value in the test with cyno IL-19 [4] worked out at 1.84 nM. The molecule further returned a Kd with human IL-19 [5] of 0.0068 nM.
